Patent US20220144956A1 (published 2022)

Target: T1, human TGFßRII (antigen of the Octet experiments) (human, UniProt P37173 23-166)
Assay: BLI (Octet)

T1 sequence (P37173 23-166): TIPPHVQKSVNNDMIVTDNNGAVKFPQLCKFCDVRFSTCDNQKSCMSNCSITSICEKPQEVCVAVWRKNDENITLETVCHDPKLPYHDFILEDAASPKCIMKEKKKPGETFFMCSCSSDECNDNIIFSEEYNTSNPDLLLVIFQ

Binder	Kd
H1.75 L1 XENP34531 (antibody, V domains shown) VH: QLQVQESGPGLVKPSETLSLTCTVSGGSISNSYFSWGWIRQPPGKGLEWIGSFYYGEKTYYNPSLKSRATISIDTSKSQFSLQLSSVTAADTAVYYCPRGPTMIRGVIDSWGQGTLVTVSS VL: EIVLTQSPATLSLSPGERATLSCRASQSVRSYLAWYQQKPGQAPRLLIYDASNRATGIPARFSGSGSGTDFTLTISSLEPEDFAVYYCQQRSNWPPTFGQGTKVEIK	1180 pM
H1.55 L1 XENP34511 (antibody, V domains shown) VH: QLQVQESGPGLVKPSETLSLTCTVSGGSISNSYFSWGWIRQPPGKGLEWIGSFYYSEKTYYNPSLKSRATISIDTSKSQFSLKLSSVTAADTAVYYCPRGPTMIRGVIDSWGQGTLVTVSS VL: EIVLTQSPATLSLSPGERATLSCRASQSVRSYLAWYQQKPGQAPRLLIYDASNRATGIPARFSGSGSGTDFTLTISSLEPEDFAVYYCQQRSNWPPTFGQGTKVEIK	348 pM
H1.62 L1 XENP34518 (antibody, V domains shown) VH: QLQVQESGPGLVKPSETLSLTCTVSGGSISNSYFSWGWIRQPPGKGLEWIGSFYYGEKTFYNPSLKSRATISIDTSKSQFSLKLSSVTAADTAVYYCPRGPTMIRGVIDSWGQGTLVTVSS VL: EIVLTQSPATLSLSPGERATLSCRASQSVRSYLAWYQQKPGQAPRLLIYDASNRATGIPARFSGSGSGTDFTLTISSLEPEDFAVYYCQQRSNWPPTFGQGTKVEIK	1350 pM
H1.54 L1 XENP34510 (antibody, V domains shown) VH: QLQVQESGPGLVKPSETLSLTCTVSGGSISNSYFSWGWIRQPPGKGLEWIGSFYSGEKTYYNPSLKSRATISIDTSKSQFSLKLSSVTAADTAVYYCPRGPTMIRGVIDSWGQGTLVTVSS VL: EIVLTQSPATLSLSPGERATLSCRASQSVRSYLAWYQQKPGQAPRLLIYDASNRATGIPARFSGSGSGTDFTLTISSLEPEDFAVYYCQQRSNWPPTFGQGTKVEIK	666 pM
H1.58 L1 XENP34514 (antibody, V domains shown) VH: QLQVQESGPGLVKPSETLSLTCTVSGGSISNSYFSWGWIRQPPGKGLEWIGSFYYGEDTYYNPSLKSRATISIDTSKSQFSLKLSSVTAADTAVYYCPRGPTMIRGVIDSWGQGTLVTVSS VL: EIVLTQSPATLSLSPGERATLSCRASQSVRSYLAWYQQKPGQAPRLLIYDASNRATGIPARFSGSGSGTDFTLTISSLEPEDFAVYYCQQRSNWPPTFGQGTKVEIK	2490 pM
H1.67 L1 XENP34523 (antibody, V domains shown) VH: QLQVQESGPGLVKPSETLSLTCTVSGGSISNSYFSWGWIRQPPGKGLEWIGSFYYGEKTYYSPSLKSRATISIDTSKSQFSLKLSSVTAADTAVYYCPRGPTMIRGVIDSWGQGTLVTVSS VL: EIVLTQSPATLSLSPGERATLSCRASQSVRSYLAWYQQKPGQAPRLLIYDASNRATGIPARFSGSGSGTDFTLTISSLEPEDFAVYYCQQRSNWPPTFGQGTKVEIK	1950 pM
H1.42 L1 XENP34498 (antibody, V domains shown) VH: QLQVQESGPGLVKPSETLSLTCTVSGGSISNSYFSWGWIRQPPGKGLEWIGNFYYGEKTYYNPSLKSRATISIDTSKSQFSLKLSSVTAADTAVYYCPRGPTMIRGVIDSWGQGTLVTVSS VL: EIVLTQSPATLSLSPGERATLSCRASQSVRSYLAWYQQKPGQAPRLLIYDASNRATGIPARFSGSGSGTDFTLTISSLEPEDFAVYYCQQRSNWPPTFGQGTKVEIK	2590 pM
H1.51 L1 XENP34507 (antibody, V domains shown) VH: QLQVQESGPGLVKPSETLSLTCTVSGGSISNSYFSWGWIRQPPGKGLEWIGSFNYGEKTYYNPSLKSRATISIDTSKSQFSLKLSSVTAADTAVYYCPRGPTMIRGVIDSWGQGTLVTVSS VL: EIVLTQSPATLSLSPGERATLSCRASQSVRSYLAWYQQKPGQAPRLLIYDASNRATGIPARFSGSGSGTDFTLTISSLEPEDFAVYYCQQRSNWPPTFGQGTKVEIK	35600 pM

Now from value to binder:

Kd	Binder
5370 pM	H1.64 L1 XENP34520 (antibody, V domains shown) VH: QLQVQESGPGLVKPSETLSLTCTVSGGSISNSYFSWGWIRQPPGKGLEWIGSFYYGEKTNYNPSLKSRATISIDTSKSQFSLKLSSVTAADTAVYYCPRGPTMIRGVIDSWGQGTLVTVSS VL: EIVLTQSPATLSLSPGERATLSCRASQSVRSYLAWYQQKPGQAPRLLIYDASNRATGIPARFSGSGSGTDFTLTISSLEPEDFAVYYCQQRSNWPPTFGQGTKVEIK
203 pM	H1.56 L1 XENP34512 (antibody, V domains shown) VH: QLQVQESGPGLVKPSETLSLTCTVSGGSISNSYFSWGWIRQPPGKGLEWIGSFYYGGKTYYNPSLKSRATISIDTSKSQFSLKLSSVTAADTAVYYCPRGPTMIRGVIDSWGQGTLVTVSS VL: EIVLTQSPATLSLSPGERATLSCRASQSVRSYLAWYQQKPGQAPRLLIYDASNRATGIPARFSGSGSGTDFTLTISSLEPEDFAVYYCQQRSNWPPTFGQGTKVEIK
627 pM	H1.43 L1 XENP34499 (antibody, V domains shown) VH: QLQVQESGPGLVKPSETLSLTCTVSGGSISNSYFSWGWIRQPPGKGLEWIGTFYYGEKTYYNPSLKSRATISIDTSKSQFSLKLSSVTAADTAVYYCPRGPTMIRGVIDSWGQGTLVTVSS VL: EIVLTQSPATLSLSPGERATLSCRASQSVRSYLAWYQQKPGQAPRLLIYDASNRATGIPARFSGSGSGTDFTLTISSLEPEDFAVYYCQQRSNWPPTFGQGTKVEIK
3860 pM	H1.60 L1 XENP34516 (antibody, V domains shown) VH: QLQVQESGPGLVKPSETLSLTCTVSGGSISNSYFSWGWIRQPPGKGLEWIGSFYYGESTYYNPSLKSRATISIDTSKSQFSLKLSSVTAADTAVYYCPRGPTMIRGVIDSWGQGTLVTVSS VL: EIVLTQSPATLSLSPGERATLSCRASQSVRSYLAWYQQKPGQAPRLLIYDASNRATGIPARFSGSGSGTDFTLTISSLEPEDFAVYYCQQRSNWPPTFGQGTKVEIK
791 pM	H1.61 L1 XENP34517 (antibody, V domains shown) VH: QLQVQESGPGLVKPSETLSLTCTVSGGSISNSYFSWGWIRQPPGKGLEWIGSFYYGEKIYYNPSLKSRATISIDTSKSQFSLKLSSVTAADTAVYYCPRGPTMIRGVIDSWGQGTLVTVSS VL: EIVLTQSPATLSLSPGERATLSCRASQSVRSYLAWYQQKPGQAPRLLIYDASNRATGIPARFSGSGSGTDFTLTISSLEPEDFAVYYCQQRSNWPPTFGQGTKVEIK
15100 pM	H1.65 L1 XENP34521 (antibody, V domains shown) VH: QLQVQESGPGLVKPSETLSLTCTVSGGSISNSYFSWGWIRQPPGKGLEWIGSFYYGEKTSYNPSLKSRATISIDTSKSQFSLKLSSVTAADTAVYYCPRGPTMIRGVIDSWGQGTLVTVSS VL: EIVLTQSPATLSLSPGERATLSCRASQSVRSYLAWYQQKPGQAPRLLIYDASNRATGIPARFSGSGSGTDFTLTISSLEPEDFAVYYCQQRSNWPPTFGQGTKVEIK
677 pM	H1.47 L1 XENP34503 (antibody, V domains shown) VH: QLQVQESGPGLVKPSETLSLTCTVSGGSISNSYFSWGWIRQPPGKGLEWIGSVYYGEKTYYNPSLKSRATISIDTSKSQFSLKLSSVTAADTAVYYCPRGPTMIRGVIDSWGQGTLVTVSS VL: EIVLTQSPATLSLSPGERATLSCRASQSVRSYLAWYQQKPGQAPRLLIYDASNRATGIPARFSGSGSGTDFTLTISSLEPEDFAVYYCQQRSNWPPTFGQGTKVEIK
771 pM	H1.74 L1 XENP34530 (antibody, V domains shown) VH: QLQVQESGPGLVKPSETLSLTCTVSGGSISNSYFSWGWIRQPPGKGLEWIGSFYYGEKTYYNPSLKSRATISIDTSKNQFSLKLSSVTAADTAVYYCPRGPTMIRGVIDSWGQGTLVTVSS VL: EIVLTQSPATLSLSPGERATLSCRASQSVRSYLAWYQQKPGQAPRLLIYDASNRATGIPARFSGSGSGTDFTLTISSLEPEDFAVYYCQQRSNWPPTFGQGTKVEIK

Target: T1, human TGFßRII (antigen of the Octet …)
Assay: BLI (Octet)
Remark: another data set of the same source

Binder	Kd
H1.86 L1 XENP34542 (antibody, V domains shown) VH: QLQVQESGPGLVKPSETLSLTCTVSGGSISNSYFSWGWIRQPPGKGLEWIGSFYYGEKTYYNPSLKSRATISIDTSKSQFSLKLSSVTAADTAVYYCPRGPTTIRGVIDSWGQGTLVTVSS VL: EIVLTQSPATLSLSPGERATLSCRASQSVRSYLAWYQQKPGQAPRLLIYDASNRATGIPARFSGSGSGTDFTLTISSLEPEDFAVYYCQQRSNWPPTFGQGTKVEIK	66.2 pM
H1.89 L1 XENP34545 (antibody, V domains shown) VH: QLQVQESGPGLVKPSETLSLTCTVSGGSISNSYFSWGWIRQPPGKGLEWIGSFYYGEKTYYNPSLKSRATISIDTSKSQFSLKLSSVTAADTAVYYCPRGPTMDRGVIDSWGQGTLVTVSS VL: EIVLTQSPATLSLSPGERATLSCRASQSVRSYLAWYQQKPGQAPRLLIYDASNRATGIPARFSGSGSGTDFTLTISSLEPEDFAVYYCQQRSNWPPTFGQGTKVEIK	141 pM
H1.77 L1 XENP34533 (antibody, V domains shown) VH: QLQVQESGPGLVKPSETLSLTCTVSGGSISNSYFSWGWIRQPPGKGLEWIGSFYYGEKTYYNPSLKSRATISIDTSKSQFSLKLSSVTAVDTAVYYCPRGPTMIRGVIDSWGQGTLVTVSS VL: EIVLTQSPATLSLSPGERATLSCRASQSVRSYLAWYQQKPGQAPRLLIYDASNRATGIPARFSGSGSGTDFTLTISSLEPEDFAVYYCQQRSNWPPTFGQGTKVEIK	749 pM

The remaining lines, values ahead:

Kd	Binder
699 pM	H1.78 L1 XENP34534 (antibody, V domains shown) VH: QLQVQESGPGLVKPSETLSLTCTVSGGSISNSYFSWGWIRQPPGKGLEWIGSFYYGEKTYYNPSLKSRATISIDTSKSQFSLKLSSVTAADTAVYYCARGPTMIRGVIDSWGQGTLVTVSS VL: EIVLTQSPATLSLSPGERATLSCRASQSVRSYLAWYQQKPGQAPRLLIYDASNRATGIPARFSGSGSGTDFTLTISSLEPEDFAVYYCQQRSNWPPTFGQGTKVEIK
300000 pM	H1.81 L1 XENP34537 (antibody, V domains shown) VH: QLQVQESGPGLVKPSETLSLTCTVSGGSISNSYFSWGWIRQPPGKGLEWIGSFYYGEKTYYNPSLKSRATISIDTSKSQFSLKLSSVTAADTAVYYCPRGPNMIRGVIDSWGQGTLVTVSS VL: EIVLTQSPATLSLSPGERATLSCRASQSVRSYLAWYQQKPGQAPRLLIYDASNRATGIPARFSGSGSGTDFTLTISSLEPEDFAVYYCQQRSNWPPTFGQGTKVEIK
2410 pM	H1.82 L1 XENP34538 (antibody, V domains shown) VH: QLQVQESGPGLVKPSETLSLTCTVSGGSISNSYFSWGWIRQPPGKGLEWIGSFYYGEKTYYNPSLKSRATISIDTSKSQFSLKLSSVTAADTAVYYCPRGPSMIRGVIDSWGQGTLVTVSS VL: EIVLTQSPATLSLSPGERATLSCRASQSVRSYLAWYQQKPGQAPRLLIYDASNRATGIPARFSGSGSGTDFTLTISSLEPEDFAVYYCQQRSNWPPTFGQGTKVEIK
